± gives the standard deviation of the averaged measurements.
Test: total protein half-life in vivo (active degradation + dilution); higher = more stable protein
[1] = E. coli NCM3722 delta-clpP delta-lon delta-hslV, growth: N-lim chemostat, doubling time 6 h
[2] = E. coli NCM3722 delta-clpP, growth: N-lim chemostat, doubling time 6 h
[3] = E. coli NCM3722 delta-hslV, growth: N-lim chemostat, doubling time 6 h
[4] = E. coli NCM3722 delta-lon, growth: N-lim chemostat, doubling time 6 h
[5] = E. coli NCM3722 delta-smpB, growth: N-lim chemostat, doubling time 6 h
[6] = wild type E. coli NCM3722, growth: C-lim chemostat, doubling time 3 h
[7] = wild type E. coli NCM3722, growth: C-lim chemostat, doubling time 6 h
[8] = wild type E. coli NCM3722, growth: C-lim chemostat, doubling time 12 h
[9] = wild type E. coli NCM3722, growth: N-lim chemostat, doubling time 6 h
[10] = wild type E. coli NCM3722, growth: N-lim chemostat, doubling time 12 h
[11] = wild type E. coli NCM3722, growth: P-lim chemostat, doubling time 6 h
[12] = wild type E. coli NCM3722, growth: P-lim chemostat, doubling time 12 h

Sequence	total protein half-life in vivo [1] [h]	total protein half-life in vivo [2] [h]	total protein half-life in vivo [3] [h]	total protein half-life in vivo [4] [h]	total protein half-life in vivo [5] [h]	total protein half-life in vivo [6] [h]	total protein half-life in vivo [7] [h]	total protein half-life in vivo [8] [h]	total protein half-life in vivo [9] [h]	total protein half-life in vivo [10] [h]	total protein half-life in vivo [11] [h]	total protein half-life in vivo [12] [h]
MRLFIAEKPSLARAIADVLPKPHRKGDGFIECGNGQVVTWCIGHLLEQAQPDAYDSRYARWNLADLPIVPEKWQLQPRPSVTKQLNVIKRFLHEASEIVHAGDPDREGQLLVDEVLDYLQLAPEKRQQVQRCLINDLNPQAVERAIDRLRSNSEFVPLCVSALARARADWLYGINMTRAYTILGRNAGYQGVLSVGRVQTPVLGLVVRRDEEIENFVAKDFFEVKAHIVTPADERFTAIWQPSEACEPYQDEEGRLLHRPLAEHVVNRISGQPAIVTSYNDKRESESAPLPFSLSALQIEAAKRFGLSAQNVLDICQKLYETHKLITYPRSDCRYLPEEHFAGRHAVMNAISVHAPDLLPQPVVDPDIRNRCWDDKKVDAHHAIIPTARSSAINLTENEAKVYNLIARQYLMQFCPDAVFRKCVIELDIAKGKFVAKARFLAEAGWRTLLGSKERDEENDGTPLPVVAKGDELLCEKGEVVERQTQPPRHFTDATLLSAMTGIARFVQDKDLKKILRATDGLGTEATRAGIIELLFKRGFLTKKGRYIHSTDAGKALFHSLPEMATRPDMTAHWESVLTQISEKQCRYQDFMQPLVGTLYQLIDQAKRTPVRQFRGIVAPGSGGSADKKKAAPRKRSAKKSPPADEVGSGAIA	5.31 ± 0.35	2.48 ± 0.14	1.843 ± 0.0066	4.39 ± 0.75	1.97 ± 0.14	1.65 ± 0.098	3.12 ± 0.038	3.27 ± 0.57	2.32 ± 0.17	3.255 ± 0.0094	2.23 ± 0.41	4.46 ± 1.1
MRLFNWRRQAVLNAMPLVKPDQVRTPWHEFWRRFRRQHMAMTAALFVILLIVVAIFARWIAPYDAENYFDYDNLNNGPSLQHWFGVDSLGRDIFSRVLVGAQISLAAGVFAVFIGAAIGTLLGLLAGYYEGWWDRLIMRICDVLFAFPGILLAIAVVAVLGSGIANVIIAVAIFSIPAFARLVRGNTLVLKQQTFIESARSIGASDMTVLLRHILPGTVSSIVVFFTMRIGTSIISAASLSFLGLGAQPPTPEWGAMLNEARADMVIAPHVAVFPALAIFLTVLAFNLLGDGLRDALDPKIKG	–	6.63	6.48 ± 0.35	–	6.59 ± 0.99	3.08 ± 0.21	6.44 ± 0.14	13.6	6.817 ± 0.047	12.4 ± 1.2	6.55 ± 0.52	–
MRLLNRLNQYQRLWQPSAGKPQTVTVSELAERCFCSERHVRTLLRQAQEAGWLEWQAQSGRGKRGQLRFLVTPESLRNAMMEQALETGKQQDVLELAQLAPGELRTLLQPFMGGQWQNDTPTLRIPYYRPLEPLQPGFLPGRAEQHLAGQIFSGLTRFDNNTQRPIGDLAHHWETSTDGLRWDFYLRSTLHWHNGDAVKASHLHQRLLMLLQLPALDQLFISVKRIEVTHPQCLTFFLHRPDYWLAHRLASYCSHLAHPQFPLIGTGPFRLTQFTAELVRLESHDYYHLRHPLLKAVEYWITPPLFEKDLGTSCRHPVQITIGKPEELQRVSQVSSGISLGFCYLTLRKSPRLSLWQARKVISIIHQSGLLQTLEVGENLITASHALLPGWTIPHWQVPDEVKLPKTLTLVYHLPIELHTMAERLQATLAAEGCELTIIFHNAKNWDDTTLQAHADLMMGDRLIGEAPEYTLEQWLRCDPLWPHVFDAPAYAHLQSTLDAVQIMPDEENRFNALKAVFSQLMTDATLTPLFNYHYRISAPPGVNGVRLTPRGWFEFTEAWLPAPSQ	5.67	–	–	–	–	1.85 ± 0.39	3 ± 0.03	4.716 ± 0.0097	–	–	–	–
MRLLPLVAAATAAFLVVACSSPTPPRGVTVVNNFDAKRYLGTWYEIARFDHRFERGLEKVTATYSLRDDGGLNVINKGYNPDRGMWQQSEGKAYFTGAPTRAALKVSFFGPFYGGYNVIALDREYRHALVCGPDRDYLWILSRTPTISDEVKQEMLAVATREGFDVSKFIWVQQPGS [P0A901]	5.85 ± 0.12	6.28 ± 0.6	5.56 ± 0.29	6.82 ± 0.84	5.8 ± 0.32	2.82 ± 0.082	5.41 ± 0.38	10.6 ± 2.6	5.78 ± 0.14	11.8 ± 1.4	5.43 ± 0.26	11.04 ± 0.072
MRLNPGQQQAVEFVTGPCLVLAGAGSGKTRVITNKIAHLIRGCGYQARHIAAVTFTNKAAREMKERVGQTLGRKEARGLMISTFHTLGLDIIKREYAALGMKANFSLFDDTDQLALLKELTEGLIEDDKVLLQQLISTISNWKNDLKTPSQAAASAIGERDRIFAHCYGLYDAHLKACNVLDFDDLILLPTLLLQRNEEVRKRWQNKIRYLLVDEYQDTNTSQYELVKLLVGSRARFTVVGDDDQSIYSWRGARPQNLVLLSQDFPALKVIKLEQNYRSSGRILKAANILIANNPHVFEKRLFSELGYGAELKVLSANNEEHEAERVTGELIAHHFVNKTQYKDYAILYRGNHQSRVFEKFLMQNRIPYKISGGTSFFSRPEIKDLLAYLRVLTNPDDDSAFLRIVNTPKREIGPATLKKLGEWAMTRNKSMFTASFDMGLSQTLSGRGYEALTRFTHWLAEIQRLAEREPIAAVRDLIHGMDYESWLYETSPSPKAAEMRMKNVNQLFSWMTEMLEGSELDEPMTLTQVVTRFTLRDMMERGESEEELDQVQLMTLHASKGLEFPYVYMVGMEEGFLPHQSSIDEDNIDEERRLAYVGITRAQKELTFTLCKERRQYGELVRPEPSRFLLELPQDDLIWEQERKVVSAEERMQKGQSHLANLKAMMAAKRGK	4.75 ± 0.66	3.564 ± 0.03	3.26 ± 0.39	3.59 ± 0.24	2.97 ± 0.12	2.89 ± 0.43	4.89 ± 0.71	6.36 ± 0.89	3.27 ± 0.52	4.74 ± 0.2	5.75 ± 0.71	8.39 ± 0.72
MRLRKYNKSLGWLSLFAGTVLLSGCNSALLDPKGQIGLEQRSLILTAFGLMLIVVIPAILMAVGFAWKYRASNKDAKYSPNWSHSNKVEAVVWTVPILIIIFLAVLTWKTTHALEPSKPLAHDEKPITIEVVSMDWKWFFIYPEQGIATVNEIAFPANTPVYFKVTSNSVMNSFFIPRLGSQIYAMAGMQTRLHLIANEPGTYDGISASYSGPGFSGMKFKAIATPDRAAFDQWVAKAKQSPNTMSDMAAFEKLAAPSEYNQVEYFSNVKPDLFADVINKFMAHGKSMDMTQPEGEHSAHEGMEGMDMSHAESAH [P0ABJ1]	5.81 ± 1.2	–	6.43 ± 0.55	6.06 ± 0.16	5.63 ± 0.44	–	7.01 ± 0.81	–	6.11 ± 0.29	–	5.85 ± 0.097	11.98 ± 0.095

Source: the supplement of paper PMC11246515
